pKd: −log10 of the molar value.
Columns and labels:
[1] = target: recombinant extracellular domain of FGFR-2c; experiment: SPR (BIACORE 2000), FGF-20 fixed on CM5 chip, receptor extracellular domain as analyte
[2] = target: recombinant extracellular domain of FGFR-3c; experiment: as above

pKd [1]: 7.55 | koff [1]: 0.0167 s⁻¹ | kon [1]: 595000 M⁻¹ s⁻¹ | pKd [2]: 6.66 | koff [2]: 0.0247 s⁻¹ | kon [2]: 115000 M⁻¹ s⁻¹
Substance: Recombinant FGF-20 (from UniProt Q9EST9 1-212) (ligand)
